Drawing on patent US12624096B2, “Anti-tau antibodies and methods of use thereof” (GTInvent Limited, priority 2020, dated 2026), this text covers ka, kd and Kd for nine molecules.

Test [1] has as its target hT40 (Homo sapiens, UniProt P10636). The experiment in a line: Biacore X100 SPR, scAb captured via anti-HuCk, hT40 as analyte. The class given is binding. The procedure: Surface plasmon resonance (SPR) is widely regarded as the gold standard for real time measurement of protein-protein interactions such as antibody binding. All SPR experiments were carried out using a Biacore X100 machine and HBS EP+ running buffer (GE Healthcare). A ‘capture’ method was followed for affinity measurements, where an anti-human constant kappa chain (HuCk) antibody was conjugated to the surface of a CM5 sensor chip using an amine coupling kit and scAb molecules were immobilised via their HuCk domain. Amine coupling is a very common approach for immobilising the ligand to the chip surface. […] The capture antibody was diluted 1/100 in 10 mM Sodium acetate buffer pH 5.0 and passed over the activated chip surface for a period of at least 420 s. Final ligand immobilisation levels over 12,000 RU were deemed to be satisfactory.
Following immobilisation, the level of each scAb to be captured was identified using the standard SPR equation with a theoretical RMax of 100 RU. Analyte MW refers to the molecular weight of hT40 or dGA/dGAE molecules, while ligand MW refers to the molecular weight of the scAbs tested. RL is the desired capture level and S refers to the stoichiometric ratio:
The scAb to be tested was added only to flow cell 2 so that flow cell 1 could act as a control to subtract any interaction with the analyte and the chip surface. Both single and multi-cycle runs were utilised using wizards developed in the Biacore X100 control software which are both accepted methods of kinetic analysis (Karlsson, R., et al. Analyzing a kinetic titration series using affinity biosensors (2006) Analytical Biochemistry 349:136-47). The multi-cycle protocol was as follows-Three start-up cycles composed of an initial capture, to the desired level, of the scAb to be tested was performed followed by a 30 s injection of glycine buffer pH 2.0 after each cycle to regenerate the chip surface. […] Following three start-up cycles increasing concentrations (0.15625 nM-100 nM) of the target to be tested were added to the chip surface after the desired scAb capture. The target was added for a 120 s association period and 420 s dissociation period followed by another regeneration, 30 s injection of glycine buffer pH 2.0 in between each cycle.
The single cycle kinetics protocol was similar and utilised the same level of scAb capture. Three start-up cycles were used followed by 5 increasing concentrations of the analyte (6.25 nM-100 nM) for an association period of 120 s followed by a dissociation period of 420 s for each concentration. In single cycle kinetics the regeneration step was performed only after the final analyte concentration was added. Binding responses were analysed in Biacore X100 evaluation software and data fitted to a 1:1 binding model to obtain kinetic and affinity characterisation.
On the technique in general: Surface plasmon resonance follows binding to a sensor surface in real time, without labels.

The target of test [2] is htau40 (Homo sapiens, UniProt P10636). The test can be described thus: Biacore X100 SPR of anti-tau mAbs on immobilised htau40. The class given is binding. The procedure:
For anti-tau mAb SPR measurements, htau40 was conjugated to the surface of a CM5 sensor chip using amine coupling as explained previously. Briefly, 2 μg/mL htau40 in 10 mM Sodium acetate buffer (pH 4.0) was passed over the activated chip surface (EDC/NHS) in flow cell 2 for a period for 45 s followed by blocking with 1 M ethanolamine-HCl PH 8.5. Flow cell 1 was set up as reference control and blocked simultaneously. Final immobilisation level of htau40 (Rmax) was approximately 250 RU. Following a minimum of three start-up cycles, increasing concentrations (0.78 nM-25 nM) of the mAb in HBS-EP+ buffer was added at a rate of 30 μL/min to the chip. The mAb was added for a 120 s association period and 600 s dissociation period followed by a regeneration cycle of 30 s injection of glycine buffer pH 1.5 in between each cycle. Binding responses were analysed in Biacore X100 evaluation software and data fitted to a 1:1 binding model to obtain kinetic and affinity characterisation.
For anti-tau mAb SPR measurements (Biacore X100™) and epitope mapping, the same methodologies described above (see Example 16) were followed. Kinetic rates and equilibrium binding constants of additional anti-tau mAbs and the regions recognised on hT40 are given in the Table 25 below

Setting [3] is: '3a' and '3b' scAbs, Table 25, hT40.
The mark [4] stands for this setting: newly converted mAbs, Table 25 (Example 28), hT40.
[5] abbreviates: mAb, Table 27, immobilised hT40.

Chain of hT40 (P10636 1-441 isoform P10636-8): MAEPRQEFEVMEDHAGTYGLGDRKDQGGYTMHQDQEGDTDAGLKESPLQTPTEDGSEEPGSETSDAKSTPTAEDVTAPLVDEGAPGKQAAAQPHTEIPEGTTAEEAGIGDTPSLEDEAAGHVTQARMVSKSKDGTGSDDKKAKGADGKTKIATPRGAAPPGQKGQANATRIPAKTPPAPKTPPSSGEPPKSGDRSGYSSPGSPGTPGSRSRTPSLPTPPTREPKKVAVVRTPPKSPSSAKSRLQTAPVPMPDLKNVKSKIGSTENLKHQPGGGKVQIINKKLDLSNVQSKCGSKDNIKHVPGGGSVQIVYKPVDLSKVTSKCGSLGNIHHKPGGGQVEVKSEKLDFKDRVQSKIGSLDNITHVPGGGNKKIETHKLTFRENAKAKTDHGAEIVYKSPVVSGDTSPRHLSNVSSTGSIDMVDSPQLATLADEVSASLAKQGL
Chain of htau40 (P10636 1-441 isoform P10636-8): as above

B1: 3aA6: anti-tau clone, sequence in b345 (protein)
scFv: QVRLQESGSSLVKPSQTLSLVCTVSGFPLTSNAVGWVRQAPGKAPEWLGLIDIDGDTAYNPALESRLSITRDTSKSQVSLSLSSVAIEDTAVYYCARHYDKWGYADSIDYWGPGLLVTVSSEGKSSGASGESKVDDQALLTQPSSVFGSLGQRVSITCSGSSSNVGYGDYVGWYQQVPGSAPKLLIYDATTRASGVPDRFSGSRSGNTATLTISSLQAEDEADYYCASYQNERSGVFGSGTRLTVLG
modifications: 3aA6 amino acid sequence
In the case of B1, in test [1] (setting [3]), the ka is 19000 M⁻¹ s⁻¹ and the kd came to 0.0188 s⁻¹.

B2: 3aG3: anti-tau clone, SEQ ID NO: 424 (protein)
scFv: QVQLQESGPSLVKPSQTLSLTCTVSGFSLSSNGVGWVRQAPGKVPEWVGDISSSGKAYANPALKSRLSITRDTAKTQVFLSLSSVTTEDTAVYYCVRCRDGGVSYGYDIDYWGPGLLVTVSSEGKSSGASGESKVDDQAVLTQPPSVSGSPGQRVSITCSGSSSNIGGGNYLSWFQQVPGSAPKLLIYGATSRASGVPDRFSGSRSGNTATLTISSLQAEDEADYYCASFDTSSGGIFGAGTRLTVLG
modifications: 3aG3 amino acid sequence
On to B2, for which the figures for the ka in test [2] (setting [4]) and in test [1] (setting [3]) were 1.532e+07 M⁻¹ s⁻¹ and 62940 M⁻¹ s⁻¹, respectively. Moreover, the values for the kd in test [2] (setting [4]) and in test [1] (setting [3]) were 0.004751 s⁻¹ and 0.0003869 s⁻¹, respectively.

B3: CE3: anti-tau clone, SEQ ID NO: 367 (protein)
scFv: QVRLQESGPSLVKPSQTLSVTCTVSGFSLISNAVGWVRQAPGKVPESLAGCSSDGKCYYNSALKSRLDITRDTSKNQISLSLSSVTTDDAAVYYCTRGYYPVYGYDYLGTIDYWGPGLLVTVSSEGKSSGASGESKVDDQAVLTQPSSVSGSLGQRVSITCSGSSSNVGRNDVAWFQQLPGSGLRTIIYGTTSRPSGIPDRFSGSKSGVTATLTIDSLQAEDEADYFCASGDSSAINDIFGSGTRLTVLG
modifications: CE3 amino acid sequence
In test [2] (setting [5]), B3 displayed a ka of 103000 M⁻¹ s⁻¹ and a kd of 0.001718 s⁻¹. Further, in test [1] (scAb, Table 23, T441 (hT40)), the ka is 174500 M⁻¹ s⁻¹ and the kd was found to be 0.000662 s⁻¹.

B4: 3aB7: anti-tau clone, SEQ ID NO: 420 (protein)
scFv: QVQLQESGPSLVKPSQTLSLTCTVSGFSLTSNGVGWVRQAPGKVPEWVGDKSSAGKTYGNPALKSRLSITRDTSKSQVSLSLSSVTTEDTAVYYCVRCRDGGVTYGYDVDYWGPGLLVTVSSEGKSSGASGESKVDDQAVLTQPSSVSKSLGQSVSITCSGSSSNVGYGDVVSWFQQFPGSAPKLLIFGTTTRASGVPDRFSGSRSGNAATLTINSLQAEDEADYYCASFDSDSGGIAGSGTRLTVLG
modifications: 3aB7 amino acid sequence
For the molecule B4, in test [1] (setting [3]), the ka turned out to be 207200 M⁻¹ s⁻¹ and the kd is 0.01435 s⁻¹.

B5: 3bG4: anti-tau clone, SEQ ID NO: 425 (protein)
scFv: QVQLQESGPSLVKPSQTLSLTCTISGFSLISNGVGWVRQAPGKVPEWVGDIASSGKAYSNPALKSRLSITRDTSKSQVSLSLRSVTTEDTAVYYCVRCRDGGVTYGYDIDYWGPGLLVTVSSEGKSSGASGESKVDDQAVLTQPSSVSKSLGQSVSITCSGSTSNVGSGNDVSWFQQVPGSAPKLLFYGATNRASGVPDRFSGSRSGNTATLTITSLQAEDEADYYCGSYDSNSGGIFGSGTRLTVLG
modifications: 3bG4 amino acid sequence
In the case of B5, the ka in test [2] (setting [4]) came out at 4.54e+06 M⁻¹ s⁻¹; in test [1] (setting [3]) it was 6.669e+06 M⁻¹ s⁻¹. In addition, the results for the kd in test [2] (setting [4]) and in test [1] (setting [3]) were 0.0002964 s⁻¹ and 0.05966 s⁻¹, respectively.

B6: 3bF4: anti-tau clone, SEQ ID NO: 421 (protein)
scFv: QVQLQESGPSLVKPSQTLSLTCTVSGFSLSSNGVGWVRQAPGKVPEWLGDISSVGKKYANPALKSRLSFTRDTSKSQVSLSLSSVTTEDTAVYYCVKCRDGGVTYGYDIDYWGPGLLVTVSSEGKSSGASGESKVDDQAVLTQPSSVSKSTGQTVSITCSGSSSNVGLRNYVTWFQQVPGSAPKLLIYGATSRASGIPDRFSGSRSGNTATLIISSLQAEDEADYYCASADTNDGGVFGSGTRLTVLG
modifications: 3bF4 amino acid sequence
In test [1] (setting [3]), B6 displayed a ka of 109300 M⁻¹ s⁻¹ and a kd of 0.01532 s⁻¹.

B7: 3bD11 (protein)
scFv: RVRLQGSGPSLVKPSQTLSLTCTVSGFSFDSYYVGWVRQAPGKALEWLGNIYSTGRAFYNPALKSRLSITRDTSKSQVSLSVSSVTIEDTALYYCVRGSYYHGGGNGMVDFFDYWSPGLLVTVSSEGKSSGASGESKVDDQVVRTQPSSVSGSLGQRVSITCSGSSSNVGYGNYVGWFQQVPGSAPKLLIYAATSRASGVPDRFSGSRSGNTATLTIDSLQAEDEADYYCSSYQRGNTGVFGSGTRLTVLG
In test [2] (setting [4]), B7 showed a ka of 2.671e+06 M⁻¹ s⁻¹ and a kd of 0.003979 s⁻¹.

B8: MD9/MoD9: anti-tau clone, SEQ ID NO: 373 (protein)
scFv: QVRLQESGPSLVKSSQTLSLTCTVSGFSLTRESIAWVRQAPGKVPEWLGGVGIDGTSYYSPALKSRLSITRDTSKSQASLSLSSVATEDTAMYYCARNYIDFEYWGPGLLVTVSSEGKSSGASGESKVDDQAVLTQLSSVSGSLGQRISITCSGSSSNVGIYDVSWFQQLPGSGLRTVIYGTNNRPSGVPDRFSGSRSGNTATLTISSLQSEDEAIYYCAAGDSSTIAVFGSGTRLTVLG
modifications: MD9 amino acid sequence
Turning to B8, in test [2] (setting [4]), the ka came out at 66200 M⁻¹ s⁻¹ and the kd was 0.001462 s⁻¹.

B9: 3aH6: anti-tau clone, SEQ ID NO: 423 (protein)
scFv: QVQLQESGPSLVKPSQTLSLTCTVSGFSLSSNGVGWVRQAPGKVPEWLGDISSVGKKYANPALKSRLSFTRDTSKSQVSLSLSSVTTEDTAVYYCVKCRDGGVTYGYDIDYWGPGLLVTASSEGKSSGASGESKVDDQAVVTQPSSVSGSLGQSVSITCSGSSGNVGYGDYVSWFQQFHGSAPKLLIYGATNLASGVPARFSGSRSGNTATLTISSLHAEDEADYYCASYDSSSGGVFGSGTRLTVLG
modifications: 3aH6 amino acid sequence
The term Kd denotes the free concentration of one partner at which half of the binding sites on the other are occupied at equilibrium, for simple one-to-one binding. Consider B9, for which the figures for the ka in test [2] (setting [4]) and in test [1] (setting [3]) were 3.128e+06 M⁻¹ s⁻¹ and 2.757e+06 M⁻¹ s⁻¹, respectively. Further, the kd in test [2] (setting [4]) worked out at 0.0001522 s⁻¹; in test [1] (setting [3]) it was 0.009868 s⁻¹. Moreover, the dissociation constant Kd in test [2] (newly converted mAbs, Table 25 (Example 28), read-out: kD (M) for hT40 binding) was 4.9e-11 M.
